Assay results published in patent US20250019439A1 (Adimab, published 2025).

Legend:
Experiment in all cases: BLI; tip anti-CD3 bsIgG, solution ADI-34134 IgG
ADI-22523 anti-CD3 bsIgG = biological target: T1, ADI-22523 anti-CD3 bsIgG (In the assayed molecule VL and VH are joined as one scFv (printed 'Vx-VH' orientation) by an undisclosed linker and fused to an Fc, paired with an anti-HER2 half-IgG. They are given here as two …)
T1 construct: anti-HER2 IgG with one Fab arm replaced by the anti-CD3 scFv (printed 'Vx-VH', read as VL-VH); S354C and Y349C mutations; not shown: scFv linker between VL and VH; anti-HER2 heavy and light chains; hinge and Fc with S354C/Y349C
T1 sequence (VH, as listed by the source limits assumed, chain 1 of 2): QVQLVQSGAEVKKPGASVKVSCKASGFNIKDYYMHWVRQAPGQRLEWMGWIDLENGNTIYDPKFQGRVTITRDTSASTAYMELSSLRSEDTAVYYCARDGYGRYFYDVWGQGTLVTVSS
T1 sequence (VL, as listed by the source limits assumed, chain 2 of 2): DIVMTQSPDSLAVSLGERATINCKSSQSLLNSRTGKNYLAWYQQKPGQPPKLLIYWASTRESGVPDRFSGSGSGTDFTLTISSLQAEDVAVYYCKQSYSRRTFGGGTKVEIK
Method: (§1) ForteBio affinity measurements were performed generally as previously described (Estep et al., MAbs. 2013 5(2):270-8). Briefly, ForteBio affinity measurements were performed by loading antibody IgG or Fabs on-line onto AHC sensors. Sensors were equilibrated off-line in assay buffer for 30 minutes and then monitored on-line for 60 seconds for baseline establishment. For avid binding measurement, sensors with loaded antibodies were exposed to IgG or Fab solutions for 3 minutes, afterwards they were transferred to assay buffer for 3 minutes for off-rate measurement. Kinetics data were fit using a 1:1 binding model in the data analysis software provided by ForteBio to obtain equilibrium dissociation constant (KD=koff/kₒₙ) values. In each column, tip-immobilized antibodies are listed first and solution antibodies second.
(§2) Additional analysis was conducted using bispecific antibody formats incorporating anti-CD3 antibody variable domains. Bispecific antibodies were prepared using standard IgG formats (bsIgG) with replacement of Fab arms with anti-CD3 scFvs in Vx-VH orientation and with S354C and Y349C mutations for disulfide stabilization. Antibodies used for Fab arm replacement were anti-HER2 IgG antibodies, with one Fab arm from each replaced by a scFv corresponding to a different anti-CD3 antibody. […] In each column, tip-immobilized antibodies are listed first and solution antibodies second. Anti-CD3 antibodies associated with incorporated scFvs are listed by antibody number.

ADI-26906 anti-CD3 bsIgG = biological target: T2, ADI-26906 anti-CD3 bsIgG
T2 construct: anti-HER2 IgG with one Fab arm replaced by the anti-CD3 scFv (printed 'Vx-VH', read as VL-VH); S354C and Y349C mutations; also called anti-CD3 bsIgG (ADI-26906 scFv); not shown: scFv linker; anti-HER2 Fab arm (heavy and light chain); hinge and Fc with S354C/Y349C
T2 sequence (VH, as listed by the source limits assumed, chain 1 of 2): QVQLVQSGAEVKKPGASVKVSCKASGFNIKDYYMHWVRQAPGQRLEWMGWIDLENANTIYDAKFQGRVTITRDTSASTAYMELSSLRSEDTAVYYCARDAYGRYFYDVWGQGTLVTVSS
T2 sequence (VL, as listed by the source limits assumed, chain 2 of 2): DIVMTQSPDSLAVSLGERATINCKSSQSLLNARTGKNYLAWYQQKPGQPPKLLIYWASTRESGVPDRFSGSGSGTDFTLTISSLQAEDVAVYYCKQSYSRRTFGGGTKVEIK
Method: as §1, §2

ADI-26913 anti-CD3 bsIgG = biological target: T3, ADI-26913 anti-CD3 bsIgG
T3 construct: anti-HER2 IgG with one Fab arm replaced by the anti-CD3 scFv (printed 'Vx-VH', read as VL-VH); S354C and Y349C mutations; also called anti-CD3 bsIgG (ADI-26913 scFv); not shown: scFv linker; anti-HER2 Fab arm (heavy and light chain); hinge and Fc with S354C/Y349C
T3 sequence (VH, as listed by the source limits assumed, chain 1 of 2): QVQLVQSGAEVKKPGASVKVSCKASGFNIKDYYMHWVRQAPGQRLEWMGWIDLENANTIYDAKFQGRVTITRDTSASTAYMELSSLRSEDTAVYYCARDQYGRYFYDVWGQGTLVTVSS
Method: as §1, §2

ADI-26916 anti-CD3 bsIgG = biological target: T4, ADI-26916 anti-CD3 bsIgG
T4 construct: anti-HER2 IgG with one Fab arm replaced by the anti-CD3 scFv (printed 'Vx-VH', read as VL-VH); S354C and Y349C mutations; also called anti-CD3 bsIgG (ADI-26916 scFv); not shown: scFv linker; anti-HER2 Fab arm (heavy and light chain); hinge and Fc with S354C/Y349C; copies: 1 + 1
T4 sequence (VH, as listed by the source limits assumed, chain 1 of 2): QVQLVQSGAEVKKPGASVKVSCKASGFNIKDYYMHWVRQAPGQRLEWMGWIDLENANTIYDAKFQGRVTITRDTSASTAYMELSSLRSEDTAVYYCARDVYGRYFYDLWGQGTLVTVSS
Method: as §1, §2

ADI-26920 anti-CD3 bsIgG = biological target: T5, ADI-26920 anti-CD3 bsIgG
T5 construct: anti-HER2 IgG with one Fab arm replaced by the anti-CD3 scFv (printed 'Vx-VH', read as VL-VH); S354C and Y349C mutations; also called anti-CD3 bsIgG (ADI-26920 scFv); not shown: scFv linker; anti-HER2 Fab arm (heavy and light chain); hinge and Fc with S354C/Y349C
T5 sequence (VH, as listed by the source limits assumed, chain 1 of 2): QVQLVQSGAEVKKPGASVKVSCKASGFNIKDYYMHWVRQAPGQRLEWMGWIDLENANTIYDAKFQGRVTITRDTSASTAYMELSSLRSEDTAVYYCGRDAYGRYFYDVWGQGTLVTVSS
T5 sequence (VL, as listed by the source limits assumed, chain 2 of 2): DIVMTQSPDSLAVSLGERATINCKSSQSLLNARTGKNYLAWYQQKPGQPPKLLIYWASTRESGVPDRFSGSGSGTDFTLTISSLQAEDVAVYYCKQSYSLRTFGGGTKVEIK
Method: as §1, §2

ADI-26921 anti-CD3 bsIgG = biological target: T6, ADI-26921 anti-CD3 bsIgG
T6 construct: anti-HER2 IgG with one Fab arm replaced by the anti-CD3 scFv (printed 'Vx-VH', read as VL-VH); S354C and Y349C mutations; also called anti-CD3 bsIgG (ADI-26921 scFv); not shown: scFv linker; anti-HER2 Fab arm (heavy and light chain); hinge and Fc with S354C/Y349C
T6 sequence (VH, as listed by the source limits assumed, chain 1 of 2): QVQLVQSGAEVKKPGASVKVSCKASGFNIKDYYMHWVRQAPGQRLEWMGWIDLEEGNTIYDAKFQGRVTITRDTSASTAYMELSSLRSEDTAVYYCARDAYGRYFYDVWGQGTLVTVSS
Method: as §1, §2

ADI-26927 anti-CD3 bsIgG = biological target: T7, ADI-26927 anti-CD3 bsIgG
T7 construct: anti-HER2 IgG with one Fab arm replaced by the anti-CD3 scFv (printed 'Vx-VH', read as VL-VH); S354C and Y349C mutations; also called anti-CD3 bsIgG (ADI-26927 scFv); not shown: scFv linker; anti-HER2 Fab arm (heavy and light chain); hinge and Fc with S354C/Y349C
T7 sequence (VH, as listed by the source limits assumed, chain 1 of 2): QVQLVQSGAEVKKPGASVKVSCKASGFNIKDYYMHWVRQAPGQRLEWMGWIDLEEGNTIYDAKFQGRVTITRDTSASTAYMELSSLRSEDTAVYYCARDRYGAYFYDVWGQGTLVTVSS
Method: as §1, §2

ADI-26928 anti-CD3 bsIgG = biological target: T8, ADI-26928 anti-CD3 bsIgG
T8 construct: anti-HER2 IgG with one Fab arm replaced by the anti-CD3 scFv (printed 'Vx-VH', read as VL-VH); S354C and Y349C mutations; also called anti-CD3 bsIgG (ADI-26928 scFv); not shown: scFv linker; anti-HER2 Fab arm (heavy and light chain); hinge and Fc with S354C/Y349C
T8 sequence (VH, as listed by the source limits assumed, chain 1 of 2): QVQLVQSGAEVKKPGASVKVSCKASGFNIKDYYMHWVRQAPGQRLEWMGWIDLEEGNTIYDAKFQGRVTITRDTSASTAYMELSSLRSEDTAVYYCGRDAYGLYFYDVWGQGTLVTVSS
Method: as §1, §2

CTL-19613 anti-CD3 bsIgG = biological target: T9, CTL-19613 anti-CD3 bsIgG (In the assay the two domains were one scFv (VL-VH orientation, linker not given). It replaced one Fab arm of an anti-HER2 IgG; S354C and Y349C mutations are stated for disulfide stabilization.)
T9 construct: anti-HER2 IgG with one Fab arm replaced by the anti-CD3 scFv (printed 'Vx-VH', read as VL-VH); S354C and Y349C mutations; also called anti-CD3 bsIgG (CTL-19613 scFv); not shown: scFv linker between VL and VH; anti-HER2 heavy and light chains of the other arm; hinge and Fc (with S354C / Y349C)
Method: as §1, §2

B1: ADI-34134 IgG (antibody, V domains shown)
VH: QVQLVQSGAEVKKPGSSVKVSCKASGGTFSSYAISWVRQAPGQGLEWMGGIIPIFGTANYAQKFQGRVTITADESTSTAYMELSSLRSEDTAVYYCARGAPNYYGSGGYDDGWFDPWGQGTLVTVSS
VL: EIVLTQSPGTLSLSPGERATLSCRASQSVSSDYLAWYQQKPGQAPRLLIYGASSRATGIPDRFSGSGSGTDFTLTISRLEPEDFAVYYCQQFGRVPTFGGGTKVEIK
Kd (ADI-22523 anti-CD3 bsIgG): 0.47 nM | Kd (ADI-26906 anti-CD3 bsIgG): 0.75 nM | Kd (ADI-26913 anti-CD3 bsIgG): 0.98 nM | Kd (ADI-26916 anti-CD3 bsIgG): 1.94 nM | Kd (ADI-26920 anti-CD3 bsIgG): 0.47 nM | Kd (ADI-26921 anti-CD3 bsIgG): 0.94 nM | Kd (ADI-26927 anti-CD3 bsIgG): 1.02 nM | Kd (ADI-26928 anti-CD3 bsIgG): 1.39 nM | binding result (CTL-19613 anti-CD3 bsIgG): no binding
